# Reference: patent publication US6858382 (GENERAL HOSPITAL, dated 2005)
# Target: T1, TetR-RasV12A186 (bacterial transposon Tn10, UniProt P04483 1-207; P01112 1-189)
# T1 construct: Yeast two-hybrid bait
# Test: yeast two-bait interaction trap, TetOp-URA3 reporter (growth without uracil)
# Description: The LexA and TetR fusion bait proteins were expressed in a yeast cell that also contained an integrated TetOp-URA3 reporter and an episomal LexAOp-lacZ reporter. Expression of baits in these "two-bait" cells was under the control of the ADH1 promoter. The TetOp-URA3 reporter was integrated into the LYS2 gene. The LexAOp-lacZ reporter, a derivative of pSH18–34, was carried on pCXW24, a 2 μm plasmid with a LYS2 marker.
# T1 sequence (P04483 1-207, tags or fused parts left off): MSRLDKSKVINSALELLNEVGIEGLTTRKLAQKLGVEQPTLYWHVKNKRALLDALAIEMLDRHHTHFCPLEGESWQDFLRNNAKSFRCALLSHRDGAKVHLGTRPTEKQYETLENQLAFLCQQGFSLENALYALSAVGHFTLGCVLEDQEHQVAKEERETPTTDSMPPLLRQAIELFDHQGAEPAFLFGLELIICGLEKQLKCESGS
binder,measurement,value
"B42-Mxi1 (other, UniProt P50539 1-228, looked up, not shown: large carriers, Yeast two-hybrid prey, used as a positive control with Max) MERVKMINVQRLLEAAEFLERRERECEHGYASSFPSMPSPRLQHSKPPRRLSRAQKHSSGSSNTSTANRSTHNELEKNRRAHLRLCLERLKVLIPLGPDCTRHTTLGLLNKAKAHIKKLEEAERKSQHQLENLEREQRFLKWRLEQLQGPQEMERIRMDSIGSTISSDRSDSEREEIEVDVESTEFSHGEVDNISTTSISDIDDHSSLPSIGSDEGYSSASVKLSFTS",binding result,no binding
